According to patent publication US20190264194A1 (published 2019):
No end group written: not given here.

T1: human C-reactive protein (human, UniProt P02741 19-224)
T1 construct: Biotinylated or labelled with Alexa Fluor 488; also called CRP; C-RP
T1 sequence (looked up): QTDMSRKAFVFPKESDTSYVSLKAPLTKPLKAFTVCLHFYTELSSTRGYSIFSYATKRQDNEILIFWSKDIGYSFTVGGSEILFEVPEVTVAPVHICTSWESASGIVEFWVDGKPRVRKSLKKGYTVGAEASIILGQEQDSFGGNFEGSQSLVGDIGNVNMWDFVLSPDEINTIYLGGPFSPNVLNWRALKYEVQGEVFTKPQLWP

B1: CRP-1 (peptide)
peptide: EWACNDRGFNCQLQR
modifications: not fully specified (bridges); cysteine pairing not given here
notes: Insert only; said to be a cyclic peptide (two cysteines)

What follows are binders tested against T1, human C-reactive protein (assay: selection from the E. coli display library).
Procedure: (§1) The library was first depleted of streptavidin binding peptides by incubation with streptavidin coated microbeads, e.g., from Qiagen, Inc. (Valencia, Calif.). Then the library was incubated with biotinylated human C-reactive protein at 10 nM final concentration, and two rounds of magnetic selection were used to enrich CRP binding peptides. […] Equilibrium binding affinities were measured in the whole cell format, by determining cell fluorescence at various concentrations of target CRP. See e.g. FIG. 17.
RYIMNHRGFYIFVPR [SEQ ID NO 250]: binds. LMNWRGFMVPRESPK [SEQ ID NO 251]: binds. WTKLKNSRGFELQLD [SEQ ID NO 254]: binds. TDFLSYYRVYRTPLQ [SEQ ID NO 248]: binds. TTCKYYLSCRWRKDL [SEQ ID NO 246]: binds. TFMPSYYRSWGPPPT [SEQ ID NO 249]: binds. PYLNARGFSVTREQI [SEQ ID NO 252]: binds.

These binders were tested against T2, streptavidin (UniProt P22629 37-163, limits assumed) (assay: selection from the X4CX3CX4 library displayed in loop 2 of OmpX).
T2 construct: Used as phycoerythrin conjugate or on coated beads; also called SA; streptavidin-phycoerythrin
TYSWCANVCMHYS [SEQ ID NO 283]: binds. CMIICQNVCYRKC [SEQ ID NO 277]: binds. TRLICANLCWYAE [SEQ ID NO 284]: binds. PTLICMNVCFYDQ [SEQ ID NO 281]: binds. QSLVCQNVCWMRE [SEQ ID NO 276]: binds. SKWICQNVCYPGL [SEQ ID NO 279]: binds. GTLVCMNFCYLSK [SEQ ID NO 280]: binds. SHWFCVNVCFRIQ [SEQ ID NO 282]: binds. KALVCQNVCYTMS [SEQ ID NO 278]: binds.

The binders below were run against T2, streptavidin (assay: selection from the XCCX4CX7CX library displayed in loop 2 of OmpX).
YCCHPQVCFLGHRAACP [SEQ ID NO 267]: binds. ICCHPQVCAWNRVFLCK [SEQ ID NO 269]: binds. ICCHPQWCGLTVWWPCK [SEQ ID NO 275]: binds. WCCHPQVCSLSLAYKCQ [SEQ ID NO 268]: binds. LCCHPQVCASAGYYACY [SEQ ID NO 273]: binds. ICCHPQVCSGLNRFRCG [SEQ ID NO 270]: binds. WCCHPQVCHRAMVRNCI [SEQ ID NO 271]: binds. LCCHPQNCVSFRHVECR [SEQ ID NO 274]: binds. ACCHPQVCVMALPYHCL [SEQ ID NO 272]: binds.

The binders below were run against T1, human C-reactive protein (assay: apparent whole-cell KD, flow cytometry with CRP-Alexa Fluor 488).
Procedure: (§2) To obtain equilibrium binding curves, cells were labeled over a range of concentrations, e.g., about 0.1 to about 200 nM, of fluorescently conjugated target proteins (streptavidin-phycoerythrin or CRP-Alexa Fluor® 488) and analyzed by flow cytometry, as above. The corresponding mean fluorescence versus concentration data were fit to a monovalent binding isotherm to obtain the apparent KD. Dissociation rates of streptavidin-binding clones were measured in the presence of about 1 to about 2 μM biotin. Cells were labeled with 50 nM streptavidin-phycoerythrin for 30 minutes at room temperature. The cells were then pelleted, resuspended in PBS with biotin, and immediately analyzed by flow cytometry. Fluorescence data were collected continuously for about five minutes. The dissociation rate constants were then determined as described previously. See Daugherty, P. S., et al. (1998) Protein Eng. 11(9):825-832, which is herein incorporated by reference.
In the case of YPPRFQYYRFYYRGP (Insert only) [CRP-10], the Kd is reported as 5 nM. Work on B1 yielded a Kd of 1 nM. Binder MIFNSRGFLSLMSSG (Insert only) [CRP-6] has a Kd of 8 nM. FPIYNQRGFITLASP (Insert only) [CRP-2] was tested, and the Kd was 3 nM.

Each binder was assayed against T2, streptavidin (assay: whole-cell dissociation by flow cytometry, 1-2 uM biotin as competitor).
Procedure: The apparent binding affinities of a subset of the selected peptides were determined using flow cytometric analysis. […] See Daugherty, P. S., et al. (1998) Protein Eng. 11(9):825-832, which is herein incorporated by reference. […] See Daugherty, P. S., et al. (1998) Protein Eng. 11(9):825-832; and Feldhaus, M. J., et al. (2003) Nat. Biotechnol. 21(2): 163-170, which are herein incorporated by reference. […] Apparent dissociation rate constants (kdiss) were determined for streptavidin, using about 1 to about 2 μM biotin as a competitor to prevent re-binding.
as §2
SITICWYTCMVQKTA (Insert only) [SA-10] showed a koff of ~0.01 s⁻¹. In the case of IMMECFYVCTIANTQ (Insert only) [SA-8], the koff is reported as ~0.01 s⁻¹. RLEICQNVCYYLGTL (Insert only; also called SA-1 pep) [SA-1] showed a koff of ~0.001 s⁻¹. For VTSLCMNVCYSLTTY (Insert only) [SA-4], the koff was ~0.001 s⁻¹. ADTICWYVCTISVHA (Insert only) [SA-11] was tested, and the koff was ~0.01 s⁻¹. For YWVCMNVCMYYTARQ (Insert only) [SA-5], the koff was ~0.001 s⁻¹. LPVWCVMHVCLTSSR (Insert only) [SA-6] showed a koff of ~0.001 s⁻¹. Work on ICSYVMYTTCFLRVY (Insert only) [SA-2] yielded a koff of ~0.001 s⁻¹.

These binders were tested against T2, streptavidin (assay: apparent whole-cell KD, flow cytometry with streptavidin-phycoerythrin).
Procedure: as §2
With RLEICQNVCYYLGTL (Insert only; also called SA-1 pep) [SA-1] the Kd was 10 nM. ICSYVMYTTCFLRVY (Insert only) [SA-2] gave a Kd of 8 nM.

These binders were tested against T1, human C-reactive protein (assay: clones isolated by MACS and FACS from the E. coli OmpA loop 1 15-mer library).
PYLNARGFSVTREQI (Insert only) [CRP-9]: binds. VRTWNDRGFQQSVDR (Insert only) [CRP-5]: binds. HMRWNTRGFLYPAMS (Insert only) [CRP-3]: binds. TDFLSYYRVYRTPLQ (Insert only) [CRP-11]: binds. TFMPSYYRSWGPPPT (Insert only) [CRP-12]: binds. RYIMNHRGFYIFVPR (Insert only) [CRP-4]: binds. LMNWRGFMVPRESPK (Insert only) [CRP-7]: binds. TTCKYYLSCRWRKDL (Insert only) [CRP-13]: binds. WTKLKNSRGFELQLD (Insert only) [CRP-8]: binds.

What follows are binders tested against T3, human serum albumin (human, UniProt P02768 25-609) in the same assay as above.
T3 construct: Biotinylated or FITC-conjugated; also called HSA
NPFCSWYRWRNWCTK (Insert only) [HSA-1]: binds. SYISTWLNFLFCGQS (Insert only) [HSA-3]: binds. RHLYCWTWRWCHFKD (Insert only) [HSA-2]: binds. NNYSAWLRCLLRAYS (Insert only) [HSA-4]: binds.

The binders below were run against T1, human C-reactive protein (assay: equilibrium dissociation constant of a selected displayed peptide, whole-cell flow cytometry at various CRP concentrations).
Procedure: as §1
as §2, with “11(9):825-832, which is herein incorporated by reference.” left out
B1 gave a Kd of 1.2 nM.
